Molecular target: crx_bovin CRX (UniProt Q9XSK0)
Sequence (Q9XSK0 whole entry): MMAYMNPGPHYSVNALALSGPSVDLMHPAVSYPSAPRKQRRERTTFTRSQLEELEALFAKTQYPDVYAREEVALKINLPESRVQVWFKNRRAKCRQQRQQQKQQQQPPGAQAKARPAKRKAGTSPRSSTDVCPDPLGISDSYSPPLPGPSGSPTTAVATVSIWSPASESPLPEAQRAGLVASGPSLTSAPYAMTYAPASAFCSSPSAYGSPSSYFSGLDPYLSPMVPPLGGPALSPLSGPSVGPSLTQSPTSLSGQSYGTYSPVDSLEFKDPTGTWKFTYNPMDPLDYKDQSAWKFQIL

Sequence of Retina and anterior neural fold homeobox protein 2 (Bos taurus (Bovine)), Q7YRX0 G137R (Q7YRX0 whole entry G137R): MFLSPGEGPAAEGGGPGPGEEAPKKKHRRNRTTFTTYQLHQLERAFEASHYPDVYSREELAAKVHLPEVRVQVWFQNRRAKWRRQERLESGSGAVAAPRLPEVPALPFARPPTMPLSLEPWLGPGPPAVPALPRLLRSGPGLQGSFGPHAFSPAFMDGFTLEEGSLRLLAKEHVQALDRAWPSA

Retina and anterior neural fold homeobox protein 2 (Bos taurus (Bovine)), Q7YRX0 G137R
effect of a mutation on the interaction: decreasing interaction
